Data taken from patent publication US20140088006A1, “Stem Cell Mobilization and Tissue Repair and Regeneration” (Wellstat Therapeutics Corporation, priority 2011, published 2014).
Several values for one entry are separate records, joined by “and”; a condition that tells them apart may be missing. Equal entries are not always repeated.

Assays:
[1] = tested on: hematopoietic stem cells (HSC) and their hematopoietic progenitors (HPC); assay: CFU-GM / CFU-GEMM colony assay of peripheral blood mononuclear cells after single subcutaneous injection; format: in vivo, C57Bl6 mice; conditions: s.c. 5 mg/kg
Protocol: (§1) C57Bl6 male mice, from 8 weeks to 4 month of age, from Harlan were used. Mice received subcutaneous injections of saline, Compound X (50 μg/kg) or Compound X (250 μg/kg). After 1 and 4 hours, mice were anesthetized and blood was collected through the orbital sinus with heparinized capillary tubes. 20 μl of blood was removed from each tube for WBC counts;
Remaining blood from each group was pooled and mononuclear cells were isolated by density gradient separation. To enumerate HSC and HPC in peripheral blood cells were washed, counted plated in semi-solid Methylcellulose MC3434 (Stem cell technology) at 100,000 per dish (5 dishes/group) and placed in CO2 incubator at 37° C. Colony-forming unit-granulocyte erythroid macrophage megakaryocyte (CFU-GEMM) and Colony-forming unit-granulocyte macrophage (CFU-GM) were detected under inverted microscope 7 and 10 days after.
(§2) In this experiment, C57Bl6 mice received subcutaneous injections of PBS, Compound X (250 μg/kg) or AMD3100 (5 mg/kg). After 1 hr blood was collected through the orbital sinus with heparinized capillary tubes. Blood from each group was pooled, counted and mononuclear cells were isolated by density gradient separation. Cells were washed, counted and plated at 100,000 per dish (5 dishes/group) for CFU-GEMM and CFU-GM colonies. CFU-GEMM colonies were scored on day 14, while CFU-GM colonies on day 7 after plating in MC3434 (Stem cell Technology).

peripheral blood cells = assay: FACS phenotype of peripheral blood cells after single subcutaneous injection; format: in vivo, C57Bl6 mice; conditions: for Phenotype Lin−/Sca-1+ / Phenotype Lin−/Sca-1−: 5 mg/kg, mononuclear cells
Protocol: C57Bl6 male mice, from 8 weeks to 4 month of age, from Harlan were used. […] 20 μl of blood was removed from each tube for WBC counts;
200 μl of blood was used for FACS analysis of cells phenotypes: briefly 50 μl of blood was transferred to a 15 ml polypropylene tube containing 1 ml ACK lysis buffer and the tubes left at room temperature for 6 minutes. 50 μl of a 1:50 dilution of Fc block (Pharmingen 01241A) along with 2 ul of anti-CD19FITC (Pharmingen 09654A) and 2 μl of anti-Gr-1PE (Pharmingen 01215A) was added and the tubes left at room temperature for 30 minutes protected from light. The cells were washed with 3 ml FACS buffer, resuspended in 300 μl FACS buffer and kept on ice, protected from light until acquired on the FACSCalibur.
For flow cytometry analysis the blood was stained with antibodies and a phenotype determined by FACS as described before. In addition to the whole blood FACS phenotyping, Ficolled blood was also stained to monitor the Lin−/Sca+ phenotype. The cells were washed with 3 ml FACS buffer, resuspended in 300 μl FACS buffer and kept on ice, protected from light until acquired on the FACSCalibur

[2] = tested on: white blood cells in peripheral blood; assay: White blood cell count in peripheral blood after single subcutaneous injection; format: in vivo, C57Bl6 mice; conditions: s.c. 5 mg/kg; 1 hr; pooled blood
Protocol: as §1, §2

[3] = tested on: human umbilical cord blood CD34+ cells; assay: Transwell migration of CD34+ cells toward SDF-1α; format: cell-based; conditions: 10 μg/mL; control and Compound X treated cells; 100 ng/mL SDF-1α; 4 hours
Protocol: CD34^+ cell migration toward 100 ng/mL SDF-1α in a Corning Transwell device (24 well format, 5 μm pore size, polycarbonate membrane) was studied with and without Compound X and in the presence or absence of either anti-CXCR4 antibody or the CXCR4 antagonist AMD3100.
The CD34^+ population of cells from human umbilical cord blood was obtained from Lonza, defrosted and expanded ex vivo with cytokine cocktail for 6 days according to standard procedures. Briefly, 10 wells of two 12 well dishes were seeded at a density of 8×10^4 cells per well in 2 mL of CellGenix serum free growth medium (SCGM). Cells were allowed to expand in a 37° C. incubator (5% CO2, 86% RH) for 6 days. During the expansion, the 10 wells of one of the two plates received treatments of Compound X to a final concentration of 5 ng/mL (10 μL from freshly prepared 1 μg/mL stock in SCGM) at 24 hours and 72 hours after initiation of the culture.
3 hours prior to the start of the migration assay, both control and Compound X expanded cells were pulsed with either 0, 5 ng/mL or 5 μg/mL Compound X. Migration assay was performed according to the method described (Tavor et al. 2005). Cells were centrifuged for 5 minutes at 1100 RPM and resuspended at a density of 2×10^6 cells/mL in CellGenix SCGM serum free medium containing 1% Fraction V BSA either in the presence or absence of 5 ng/mL or 5 μg/mL Compound X for 3 hours. The feeder tray (bottom) was prepared with 600 μL of serum free SCGM supplemented with 1% BSA in the presence or absence of SDF-1α. All treatments were conducted in triplicate. The wells of the migration chamber (top) received 100 μL of cells from the 2×10^6 cells/mL suspensions, preincubated with 5 ng/mL or 5 μg/mL Compound X or Control. All treatments were conducted in triplicates. The plates were placed in a 37° C. incubator (5% CO2, 86% RH) and cells were allowed to migrate for 4 hours. […]
The cells were thawed at room temperature. […] 150 μL of the resulting cell lysates were transferred to a new 96 well plate and the fluorescence was read on a […] SpectraMax M2 fluorimeter (ex 485, em 538). […]

[4] = tested on: white blood cells in peripheral blood; assay: White blood cell count after 4 daily injections of G-CSF and Compound X; format: in vivo, mice; conditions: 5 μg/mouse each agent s.c. daily for 4 days, pooled blood
Protocol: Compound X and Neupogen (rG-CSF Amgen, lot# P043601) were diluted in PBS. Mice received subcutaneous injections of PBS, Compound X (5 μg/mouse), G-CSF (5 μg/mouse) or Compound X (5 μg/mouse)+G-CSF (5 μg/mouse) for four consecutive days. On the last day of injections, 1 hour post injections, blood was collected through the orbital sinus with heparinized capillary tubes. Blood was pooled from 3 mice/group and white blood cell counts were obtained. Mononuclear cells were isolated by density gradient separation from pooled blood. Cells were washed, counted and plated at 100,000 per dish (5 dishes/group) for CFU-mix and CFU-GM colonies. Blood was also collected and processed on day 8 for colony assay. Results are shown in Tables 10, 11, and 12 and in FIG. 5.

HSC and HPC = assay: CFU-GM / CFU-GEMM colony assay after 4 daily injections of G-CSF and Compound X; format: in vivo, mice; conditions: for CFU-GEMM numbers, MEAN / CFU-GM numbers, MEAN / CFU-GEMM numbers / CFU-GM numbers: 5 μg/mouse each agent s.c. daily for 4 days; for CFU-GEMM numbers / CFU-GM numbers: individual dishes; for Fold increase in number of CFU-GM / Fold increase in number of CFU-Mix (CFU-GEMM): multiple injections, 5 μg/mouse each agent
Protocol: Compound X and Neupogen (rG-CSF Amgen, lot# P043601) were diluted in PBS. Mice received subcutaneous injections of PBS, Compound X (5 μg/mouse), G-CSF (5 μg/mouse) or Compound X (5 μg/mouse)+G-CSF (5 μg/mouse) for four consecutive days. […] Mononuclear cells were isolated by density gradient separation from pooled blood. […] Blood was also collected and processed on day 8 for colony assay. Results are shown in Tables 10, 11, and 12 and in FIG. 5.

[5] = 1 hour, individual dishes, 5 mg/kg

c1cc(CN2CCCNCCNCCCNCC2)ccc1CN1CCCNCCNCCCNCC1 [AMD3100, reference compound]
CFU-GEMM, MEAN ([1]; 1 hour): 6.2 per 100,000 cells | CFU-GM (day 7), MEAN ([1]; 1 hour): 20.6 per 100,000 cells | CFU-GEMM [1, 5]: 5 per 100,000 cells and 4 per 100,000 cells (2×) and 11 per 100,000 cells and 7 per 100,000 cells | CFU-GM (day 7) [1, 5]: 19 per 100,000 cells (3×) and 26 per 100,000 cells and 20 per 100,000 cells | number of circulating committed precursors of granulocytes and macrophages—CFU-GM ([1]; 1 hr): substantial increase | increase of CFU-GEMM number in peripheral blood ([1]; 1 hr, vs PBS): 6.2 times | Phenotype Lin−/Sca-1+ (peripheral blood cells; 1-hour): 0.6% | Phenotype Lin−/Sca-1− (peripheral blood cells; 1-hour): 2.8% | Phenotype Lin−/Sca-1+ (peripheral blood cells; 30-min): 0.5% | Phenotype Lin−/Sca-1− (peripheral blood cells; 30-min): 2.1% | mobilization of lineage negative progenitors (peripheral blood cells; s.c. 5 mg/kg, 30 min and 1 hr): up to 3 times | White blood cell count: Cell Count [2]: 1.14e+07 mL⁻¹ | CD34+ cell Transwell migration toward SDF-1α [3]: strong inhibition

B1: G-CSF: Neupogen (rG-CSF Amgen), most common mobilizing agent for clinical uses (protein, chains of the INN, looked up)
chain: MTPLGPASSLPQSFLLKCLEQVRKIQGDGAALQEKLCATYKLCHPEELVLLGHSLGIPWAPLSSCPSQALQLAGCLSQLHSGLFLYQGLLQALEGISPELGPTLDTLQLDVADFATTIWQQMEELGMAPALQPTQGAMPAFASAFQRRAGGVLVASHLQSFLEVSYRVLRHLAQP
White Blood Cell counts: Cell Count ([4]; Day 4, 1 hour post injection): 14.6 ×10^6 | White Blood Cell counts: Cell Count ([4]; Day 8): 5.0 ×10^6 | CFU-GEMM numbers, MEAN (HSC and HPC; Day 4): 17.6 per 100000 mononuclear cells | CFU-GM numbers, MEAN (HSC and HPC; Day 4): 60.6 per 100000 mononuclear cells | CFU-GEMM numbers (HSC and HPC; Day 4): 20 per 100000 mononuclear cells and 12 per 100000 mononuclear cells (2×) and 15 per 100000 mononuclear cells and 29 per 100000 mononuclear cells | CFU-GM numbers (HSC and HPC; Day 4): 62 per 100000 mononuclear cells and 58 per 100000 mononuclear cells and 63 per 100000 mononuclear cells and 52 per 100000 mononuclear cells and 68 per 100000 mononuclear cells | CFU-GEMM numbers, MEAN (HSC and HPC; Day 8): 4 per 100000 mononuclear cells | CFU-GM numbers, MEAN (HSC and HPC; Day 8): 15.0 per 100000 mononuclear cells | CFU-GEMM numbers (HSC and HPC; Day 8): 5 per 100000 mononuclear cells and 4 per 100000 mononuclear cells (3×) and 3 per 100000 mononuclear cells | CFU-GM numbers (HSC and HPC; Day 8): 12 per 100000 mononuclear cells and 15 per 100000 mononuclear cells and 11 per 100000 mononuclear cells and 21 per 100000 mononuclear cells and 16 per 100000 mononuclear cells | Fold increase in number of CFU-GM (HSC and HPC; Day 4): 12 Fold | Fold increase in number of CFU-Mix (CFU-GEMM) (HSC and HPC; Day 4, 1 hr after the last injection): 12.5 Fold | Fold increase in number of CFU-GM (HSC and HPC; Day 8): 6 Fold | Fold increase in number of CFU-Mix (CFU-GEMM) (HSC and HPC; Day 8): 5 Fold
